# Assay results: US20120114590A1 (priority 2005, published 2012)
# Where two headings read alike, the source gives them in different places. mPEG 20 kDa propionaldehyde = 20 kD methoxy-polyethylene glycol propionaldehyde, N-terminally conjugated
# B1: IL-28A: human IL-28A cytokine polypeptide (zcyto20), e.g. SEQ ID NO:18; CHO-derived in Examples 16 and 18 (protein, listed as Homo sapiens)
# chain: MKLDMTGDCTPVLVLMAAVLTVTGAVPVARLHGALPDARGCHIAQFKSLSPQELQAFKRAKDALEESLLLKDCRCHSRLFPRTWDLRQLQVRERPMALEAELALTLKVLEATADTDPALVDVLDQPLHTLHHILSQFRACIQPQPTAGPRTRGRLHHWLYRLQEAPKKESPGCLEASVTFNLFRLLTRDLNCVASGDLCV
# modifications: SIGNAL (1)...(25)
# B2: IL-29-CEE: IL-29 conjugated with glu tag (protein, UniProt Q8IU54 20-200, looked up)
# Interferon lambda-1: GPVPTSKPTTTGKGCHIGRFKSLSPQELASFKKARDALEESLKLKNWSCSSPVFPGNWDLRLLQVRERPVALEAELALTLKVLEAAAGPALEDVLDQPLHTLHHILSQLQACIQPQPTAGPRPRGRLHHWLHRLQEAPKKESAGCLEASVTFNLFRLLTRDLKYVADGNLCLRTSTHPEST
# modifications: Glu-Glu tag
# notes: IL-29 conjugated with glu tag
# B3: PEG-rIL-29-d2-7 (conjugate)
# chain: {mPEG 20 kDa propionaldehyde}-MKPTTTGKGCHIGRFKSLSPQELASFKKARDALEESLKLKNWSCSSPVFPGNWDLRLLQVRERPVALEAELALTLKVLEAAAGPALEDVLDQPLHTLHHILSQLQACIQPQPTAGPRPRGRLHHWLHRLQEAPKKESAGCLEASVTFNLFRLLTRDLKYVADGNLSLRTSTHPEST
# What was measured:
# HSV-2 = HSV-2 inhibition of cytopathic effect assay in Vero cells; assay type: cell-based, Herpes Simplex Virus-2; conditions: CPE assay
# Procedure: The assay involves the killing of Vero cells by the cytopathic HSV-2 virus and the inhibition of cell killing by IL-28 and EL-29. The Vero cells are propagated in Dulbecco's modified essential medium (DMEM) containing phenol red with 10% horse serum, 1% glutamine and 1% penicillin-streptomycin, while the CPE inhibition assays are performed in DMEM without phenol red with 2% FBS, 1% glutamine and 1% Pen-Strep. On the day preceding the assays, cells were trypsinized (1% trypsin-EDTA), washed, counted and plated out at 10^4 cells/well in a 96-well flat-bottom BioCoat® plates (Fisher Scientific, Pittsburgh, Pa.) in a volume of 100 μl/well. The next morning, the medium was removed and a pre-titered aliquot of virus was added to the cells. The amount of virus used is the maximum dilution that would yield complete cell killing (>80%) at the time of maximal CPE development. Cell viability is determined using a CellTiter 96® reagent (Promega) according to the manufacturer's protocol, using a Vmax plate reader (Molecular Devices, Sunnyvale, Calif.). Compounds are tested at six concentrations each, diluted in assay medium in a half-log series. Acyclovir was used as a positive control. […] The average background and drug color-corrected data for percent CPE reduction and percent cell viability at each concentration are determined relative to controls and the IC50 calculated relative to the TC50.
# HCV replicon [1] = conditions: IFNα at 10 IU/ml, replicon clones, compared to untreated control cell lines; cited from earlier work
# West Nile virus [2] = assay type: cell-based; conditions: Vero
# HHV-8 = HHV-8 replication in BCBL-1 cells (TaqMan PCR extracellular HHV-8 DNA; dye uptake TC50); assay type: cell-based, human herpesvirus-8; conditions: six days
# Procedure: The therapeutic index (TI) is calculated as TC50/IC50.
# Parainfluenza virus [3] = assay type: cell-based
# Coxsackie B4 virus [4] = assay type: cell-based; conditions: KB cells, Neutral Red Assay
# Rhino 2 [5] = assay type: cell-based, rhino virus; conditions: Rhino 2, KB
# Rhino 2 [6] = assay type: cell-based, rhino virus; conditions: Rhino 2, KB cells, Neutral Red Assay
# Rhino 9 [7] = assay type: cell-based, rhino virus; conditions: Rhino 9, HeLa cells, Neutral Red Assay
# Dengue virus [8] = assay type: cell-based; conditions: Vero
# [9] = system: Respiratory syncytial virus; assay type: cell-based; conditions: MA-104 cells, Neutral Red Assay
# AML-12 cells = assay: ISG induction in the mouse liver cell line AML-12 (real-time PCR); assay type: cell-based; conditions: AML-12, 20 ng/ml, 48 hour time point; mRNA relative to HPRT gene expression
# Procedure: AML-12 cells were plated in 6-well plates in complete DMEM media at a concentration of 2×10^6 cells/well. […] As a control, cells were either stimulated with mouse IFNα (positive control) or unstimulated (negative). […] RNA was isolated from cell pellets using RNAEasy-kit® (Qiagen, Valencia, Calif.). RNA was treated with DNase (Millipore, Billerica, Mass.) to clean RNA of any contaminating DNA. cDNA was generated using Perkin-Elmer RT mix. ISG gene induction was evaluated by real-time PCR using primers and probes specific for mouse OAS, Pkr and Mx1. To obtain quantitative data, HPRT real-time PCR was duplexed with ISG PCR. A standard curve was obtained using known amounts of RNA from IFN-stimulated mouse PBLs. All data are shown as expression relative to internal HPRT expression.
# [10] = system: 293 HEK cells overexpressing zcytor19; assay: Inhibition of ligand-induced ISRE-luciferase signaling by soluble receptors; assay type: cell-based, human; conditions: 10 ng/ml ligand, 10 micrograms/ml soluble receptor, 4-hour; relative to PBS alone
# Adenovirus [11] = assay type: cell-based
# [12] = system: liver, spleen and blood of mice; assay: ISG gene expression (OAS, Pkr, Mx1) in liver, spleen and blood of injected C57BL/6 mice (real-time PCR); assay type: in vivo, mouse; conditions: C57BL/6 mice, i.p or i.v, 10 μg-250 μg
# Procedure: Mice were sacrificed at various time points (1 hr-48 hr). Spleens and livers were isolated from mice, and RNA was isolated. RNA was also isolated from the blood cells. The cells were pelleted and RNA isolated from pellets using RNAEasy®-kit (Qiagen). RNA was treated with DNase (Amicon) to rid RNA of any contaminating DNA. cDNA was generated using Perkin-Elmer RT mix (Perkin-Elmer). ISG gene induction was measured by real-time PCR using primers and probes specific for mouse OAS, Pkr and Mx1. To obtain quantitative data, HPRT real-time PCR was duplexed with ISG PCR. A standard curve was calculated using known amounts of IFN-stimulated mouse PBLs. All data are shown as expression relative to internal HPRT expression.
# Polio virus [13] = assay type: cell-based; conditions: Vero
# [14] = system: Venezuelan equine encephalitis virus; assay type: cell-based; conditions: Vero cells, Neutral Red Assay
# West Nile virus [15] = assay type: cell-based; conditions: Vero cells, Neutral Red Assay
# Pichinde virus [16] = assay type: cell-based
# [17] = system: Influenza (type A [H3N2]); assay type: cell-based; conditions: Maden-Darby Canine Kidney
# [18] = system: Influenza (type A [H3N2]); assay type: cell-based; conditions: Vero cells, Neutral Red Assay
# Adenovirus [19] = assay type: cell-based; conditions: A549 cells, Neutral Red Assay
# [20] = system: Influenza (type A [H3N2]); assay type: cell-based; conditions: Maden-Darby Canine Kidney cells, Neutral Red Assay
# Dengue virus [21] = assay type: cell-based; conditions: Vero cells, Neutral Red Assay
# [22] = system: Respiratory syncytial virus; assay type: cell-based
# Rhino 9 [23] = assay type: cell-based, rhino virus; conditions: Rhino 9, HeLa
# [24] = system: Influenza (type A [H3N2]); assay type: cell-based; conditions: Vero
# [25] = system: Venezuelan equine encephalitis virus; assay type: cell-based; conditions: Vero
# Parainfluenza virus [26] = assay type: cell-based; conditions: MA-104 cells, Neutral Red Assay
# Vaccinia virus [27] = assay type: cell-based; conditions: Vero
# Vaccinia virus [28] = assay type: cell-based; conditions: Vero cells, Neutral Red Assay
# Polio virus [29] = assay type: cell-based; conditions: Vero cells, Neutral Red Assay
# Coxsackie B4 virus [30] = assay type: cell-based; conditions: KB
# Pichinde virus [31] = assay type: cell-based; remark: listed apart in the source
# Daudi cells = assay: Daudi cell proliferation (Alamar Blue); assay type: cell-based, human; conditions: 1000 ng/ml to 0.5 ng/ml, 72 h
# Procedure: Human Daudi cells were suspended in RPMI+10% FBS at 50,000 cells/milliliter and 5000 cells were plated per well in a 96 well plate. […] IL-29-CEE was used at a concentration range of from 1000 ng/ml to 0.5 ng/ml. […] IFN-α2a was used at a concentration range of from 62 ng/ml to 0.03 ng/ml. Cells were incubated for 72 h at 37° C.
# HCV replicon [32] = assay: HCV Replicon model in AVA5 cells, HCV RNA by dot blot hybridization assay; conditions: three consecutive days of treatment
molecule,measurement,setting,value
IFNα,antiviral activity against HSV-2,HSV-2,no antiviral activity
same,reduction of the amount of HCV RNA,HCV replicon [1],85%
B1,EC50 Visual,West Nile virus [2],0.01 ng/mL
same,IC50 Visual,West Nile virus [2]; numerator of SI,>10 µg/mL
same,IC50 (extracellular HHV-8 DNA),HHV-8,1 µg/mL
same,EC50 Visual,Parainfluenza virus [3]; MA-104,>10 µg/mL
same,IC50 Visual,"Parainfluenza virus [3]; MA-104, numerator of SI",>10 µg/mL
same,EC50 NR,Coxsackie B4 virus [4],>10 µg/mL
same,IC50 NR,Coxsackie B4 virus [4],>10 µg/mL
same,EC50 Visual,Rhino 2 [5],>10 µg/mL
same,IC50 Visual,Rhino 2 [5]; numerator of SI,>10 µg/mL
same,EC50 NR,Rhino 2 [6],>10 µg/mL
same,IC50 NR,Rhino 2 [6],>10 µg/mL
same,EC50 NR,Rhino 9 [7],1.726 µg/mL
same,IC50 NR,Rhino 9 [7],>10 µg/mL
same,EC50 Visual,Dengue virus [8],0.01 µg/mL
same,IC50 Visual,Dengue virus [8]; numerator of SI,>10 µg/mL
same,EC50 NR,[9],>10 µg/mL
same,IC50 NR,[9],>10 µg/mL
same,Mx1,AML-12 cells,0.06
same,OAS,AML-12 cells,0.04
same,PkR,AML-12 cells,0.02
same,Percent Inhibition of Ligand-induced ISRE Signaling by HuCRF2-4-Fc,[10],80%
same,Percent Inhibition of Ligand-induced ISRE Signaling by Huzcytor19-Fc,[10],92%
same,Percent Inhibition of Ligand-induced ISRE Signaling by Huzcytor19-Fc/huCRF2-4-Fc,[10],16%
same,Percent Inhibition of Ligand-induced ISRE Signaling by Muzcytor19-Ig,[10],91%
same,EC50 Visual,Adenovirus [11]; A549,>10 µg/mL
same,IC50 Visual,"Adenovirus [11]; A549, numerator of SI",>10 µg/mL
same,"ISG gene expression (OAS, Pkr, Mx1) in the livers, spleen and blood of mice",[12],did not induce ISG gene expression
same,EC50 Visual,Polio virus [13],>10 µg/mL
same,IC50 Visual,Polio virus [13]; numerator of SI,>10 µg/mL
same,EC50 NR,[14],0.035 µg/mL
same,IC50 NR,[14],>10 µg/mL
same,EC50 NR,West Nile virus [15],0.1 ng/mL
same,IC50 NR,West Nile virus [15],>10 µg/mL
same,EC50 NR,Pichinde virus [16],>10 µg/mL
same,IC50 NR,Pichinde virus [16],>10 µg/mL
same,EC50 Visual,[17],>10 µg/mL
same,IC50 Visual,[17]; numerator of SI,>10 µg/mL
same,EC50 NR,[18],0.25 µg/mL
same,IC50 NR,[18],>10 µg/mL
same,EC50 NR,Adenovirus [19],>10 µg/mL
same,IC50 NR,Adenovirus [19],>10 µg/mL
same,EC50 NR,[20],>10 µg/mL
same,IC50 NR,[20],>10 µg/mL
same,EC50 NR,Dengue virus [21],0.1 µg/mL
same,IC50 NR,Dengue virus [21],>10 µg/mL
same,EC50 Visual,[22]; MA-104,>10 µg/mL
same,IC50 Visual,"[22]; MA-104, numerator of SI",>10 µg/mL
same,EC50 Visual,Rhino 9 [23],>10 µg/mL
same,IC50 Visual,Rhino 9 [23]; numerator of SI,>10 µg/mL
same,EC50 Visual,[24],0.1 µg/mL
same,IC50 Visual,[24]; numerator of SI,>10 µg/mL
same,EC50 Visual,[25],0.01 µg/mL
same,IC50 Visual,[25]; numerator of SI,>10 µg/mL
same,EC50 NR,Parainfluenza virus [26],>10 µg/mL
same,IC50 NR,Parainfluenza virus [26],>10 µg/mL
same,EC50 Visual,Vaccinia virus [27],>10 µg/mL
same,IC50 Visual,Vaccinia virus [27]; numerator of SI,>10 µg/mL
same,EC50 NR,Vaccinia virus [28],>10 µg/mL
same,IC50 NR,Vaccinia virus [28],>10 µg/mL
same,EC50 NR,Polio virus [29],>1.672 µg/mL
same,IC50 NR,Polio virus [29],>10 µg/mL
same,EC50 Visual,Coxsackie B4 virus [30],>10 µg/mL
same,IC50 Visual,Coxsackie B4 virus [30]; numerator of SI,>10 µg/mL
same,EC50 Visual,Pichinde virus [31],>10 µg/mL
same,IC50 Visual,Pichinde virus [31],>10 µg/mL
B2,effect on proliferation of Daudi cells,Daudi cells,no significant effect
B3,"EC50 (HCV RNA, dot blot hybridization assay)",HCV replicon [32],0.000516 µg/mL
